According to patent publication US20170128564A1, “P[…] FROM gp41, A VACCINE COMPOSITION COMPRISING SAID POLYPEPTIDE, AND USES FOR TREATING AN INFECTION BY AN HIV VIRUS IN AN INDIVIDUAL” (INSTITUT NATIONAL DE LA SANTE ET DE LA RECHERCHE MEDICALE …, priority 2003, published 2017):
No end group written: not given here.

Tests used:
CD4+ T cells = assay: NK cytotoxicity 51Cr-release assay, treated CD4+ T cells as targets of activated autologous purified NK cells; format: cell-based, human
Procedure: NK lines were generated from PBMC, and then purified using the StemSep cell separation system and the NK cell enrichment antibody cocktail (StemCell technologies). NK purified cells were cultured in MyeloCult H5100 medium (StemCell technologies) supplemented with 100 units rhlL-2 (Boheringer). The purity of these preparations was evaluated by flow cytometry after staining with anti-CD3 (BD), anti-CD56 (BD), anti-NKp44, and anti-NKp46 mAbs.
The cytololytic activity was assayed in 4-h ^51Cr-release assay as previously described. Briefly, the target cells were labeled for 2-h at 37° C. with 100 μCi per 10^6 cells Na^51Cr (Amersham), and washed twice with culture medium. The target cells were then distributed in round-bottomed 96-well microtiter plates (4×10^3 cells per well), and the effector cells were added at several E/T ratio. The plates were incubated 4-h at 37° C. The supernatant were then collected and ^51Cr-release was measured in a gamma counted. In experiments in which Abs were included, these were added to final concentration of 20 μg/ml. The relative specific ^51Cr-release was calculated as previously described. Values for spontaneous ^51Cr-release, which are deducted in the calculation, were between 10 and 20% of the total incorporated radioactivity. The results are presented after subtraction of the nonspecific lysis obtained with control targets. […]

[1] = tested on: NKp44L expression on purified CD4+ T cells; format: cell-based, human; conditions: preliminary experiment with the 6-mers peptide
NKp44L = molecular target: T1, NKp44L (Homo sapiens, UniProt Q8IZD2); assay: Staining of U2 cells with #7.1 mAb, flow cytometry, and competition with NCR-Ig fusion proteins; format: binding; conditions: HIV-1-infected U2 cells previously stained with fusion protein (FIG. 8C)
T1 construct: endogenous in cells; host or cells: U2 cells, uninfected or chronically infected with HIV-1 Sf2
T1 sequence (Q8IZD2 1-1168 isoform Q8IZD2-8 K496E/T516A): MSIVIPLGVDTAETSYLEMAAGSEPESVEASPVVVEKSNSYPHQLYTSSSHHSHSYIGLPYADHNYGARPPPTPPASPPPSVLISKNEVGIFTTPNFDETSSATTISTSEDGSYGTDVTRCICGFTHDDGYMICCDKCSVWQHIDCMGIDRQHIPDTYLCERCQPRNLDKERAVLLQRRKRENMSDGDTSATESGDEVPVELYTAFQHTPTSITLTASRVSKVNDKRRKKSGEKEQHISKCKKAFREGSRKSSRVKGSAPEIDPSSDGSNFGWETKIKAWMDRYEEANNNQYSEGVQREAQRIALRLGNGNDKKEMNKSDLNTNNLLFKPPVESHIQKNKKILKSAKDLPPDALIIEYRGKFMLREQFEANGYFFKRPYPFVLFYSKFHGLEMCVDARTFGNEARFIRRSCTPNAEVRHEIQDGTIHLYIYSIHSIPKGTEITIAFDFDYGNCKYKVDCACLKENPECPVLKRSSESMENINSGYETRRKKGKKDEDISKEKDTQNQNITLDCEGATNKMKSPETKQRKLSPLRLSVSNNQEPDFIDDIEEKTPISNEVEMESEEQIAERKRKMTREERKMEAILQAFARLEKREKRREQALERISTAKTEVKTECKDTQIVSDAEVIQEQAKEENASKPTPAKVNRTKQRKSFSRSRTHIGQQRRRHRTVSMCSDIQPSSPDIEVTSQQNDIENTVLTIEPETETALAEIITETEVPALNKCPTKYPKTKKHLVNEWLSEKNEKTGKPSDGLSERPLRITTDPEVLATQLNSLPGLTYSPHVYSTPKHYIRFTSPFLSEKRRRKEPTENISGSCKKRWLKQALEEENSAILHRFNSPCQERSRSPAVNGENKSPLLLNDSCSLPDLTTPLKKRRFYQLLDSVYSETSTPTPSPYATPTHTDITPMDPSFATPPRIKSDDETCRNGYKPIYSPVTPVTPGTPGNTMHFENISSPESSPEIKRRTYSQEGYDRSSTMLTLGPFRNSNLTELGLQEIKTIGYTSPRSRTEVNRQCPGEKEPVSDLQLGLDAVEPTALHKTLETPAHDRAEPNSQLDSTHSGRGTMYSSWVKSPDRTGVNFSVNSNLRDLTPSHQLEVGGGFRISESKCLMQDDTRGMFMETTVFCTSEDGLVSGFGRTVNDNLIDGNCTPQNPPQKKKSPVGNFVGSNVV
Procedure: 8B) Cell surface expression of NKp44L detected with #7.1 mAb. Uninfected (UI) and HIV-1-infected (Sf2) U2 cells were incubated with 1 μg/ml of #7.1 mAb (black line) or with the IgM isotype control (dotted line) and analyzed by flow cytometry.
8C) #7.1 mAb inhibits NKp44-Ig binding. HIV-1-infected U2 cells that had previously been stained with either […] of NKp44-Ig fusion protein (lower panel; black line) or control NKp46-Ig fusion protein (upper panel; black line) were incubated with #7.1 mAb (gray line) or IgM isotype control (dotted line) for 1!h at 4° C. and washed twice in 1% PBS-BSA. The cells were then analyzed by flow cytometry. Percentage of cells expressing NKp44L, after NCR-Ig incubation, is noted.
Anti-NKp44 (44/8; IgG1) and anti-NKp44L mAb (#7.1; IgM) were obtained from 5-weekold BalB/c mice immunized with the ClonaCell-HY hybridoma cloning kit, according to the manufacturer's instructions (StemCell Technologies Inc.). The anti-mouse-peroxidase hybridoma screening reagent (Roche) and ELISA were used to select antibodies. Anti-NKp44 (44/8) mAb was prepared by immunizing the mice with NKp44-Ig protein, after specific deletion of the IgG1 human Fc fragment. […] All hybridomas were analyzed with 51Cr cytotoxic assays with untreated or acid-treated 721.221 cells as targets, and the specificity of the anti-NKp44 hybridoma was analyzed by ELISA with different fusion proteins. […]

For PWASNASWSNKSLDDIW [gp41-C146], the NK cytotoxic activity (CD4+ T cells; single peptides of pool C 5 μg/ml, two days, E/T ratio 40/1 (FIG. 4A)) was “strongly increased”.

SWSNKS [NH2-SWSNKS-COOH, SWSNKS] was tested, and the NK cytotoxic activity (CD4+ T cells; preliminary experiment with the 6-mers peptide) was “any increased” and the “cell surface expression of NKp44L” value [1] was “any increased”.

B1: NKp44-Ig fusion protein: NKp44-Ig NCR-Ig fusion protein (protein)
chain: QSKAQVLQSVAGQTLTVRCQYPPTGSLYEKKGWCKEASALVCIRLVTSSKPRTMAWTSRFTIWDDPDAGFFTVTMTDLREEDSGHYWCRIYRPSDNSVSKSVRFYLVVSPASASTQTPWTPRDLVSSQTQTQSCVPPTAGARQAPESPSTIPVPSQPQNSTLRPGPAAPIA
modifications: left off: a dimerising Fc or GST
B1 was tested, and the “effect of NCR-Ig fusion protein on #7.1 mAb staining” value (NKp44L) was “Inhibition”.
